What was measured:
Experiment in all cases: SPOT array
Abp1, P15891 = biological target: T1, Abp1, P15891; settings: median of control spots 935
T1 sequence (P15891 535-592, looked up): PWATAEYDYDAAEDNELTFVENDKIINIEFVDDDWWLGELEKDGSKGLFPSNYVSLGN

Bbc1, P47068 = biological target: T2, Bbc1, P47068; settings: median of control spots 796
T2 sequence (P47068 1-78, looked up): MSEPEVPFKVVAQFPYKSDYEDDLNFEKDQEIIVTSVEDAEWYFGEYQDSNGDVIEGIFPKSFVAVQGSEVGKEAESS

Bem1-1, P29366 = settings: median of control spots 4282
Bem1-2, P29366 = settings: median of control spots 4347
Boi1, P38041 = biological target: T3, Boi1, P38041; settings: median of control spots 1162
T3 sequence (P38041 1-86, looked up): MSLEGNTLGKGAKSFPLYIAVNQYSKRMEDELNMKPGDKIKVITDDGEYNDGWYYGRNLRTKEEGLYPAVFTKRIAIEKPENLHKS

Boi2, P39969 = biological target: T4, Boi2, P39969; settings: median of control spots 1161
T4 sequence (P39969 32-116, looked up): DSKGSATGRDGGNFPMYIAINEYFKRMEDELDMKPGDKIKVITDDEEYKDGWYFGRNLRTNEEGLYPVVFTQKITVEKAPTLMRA

Bud14, P27637 = biological target: T5, Bud14, P27637; settings: median of control spots 956
T5 sequence (P27637 247-328, looked up): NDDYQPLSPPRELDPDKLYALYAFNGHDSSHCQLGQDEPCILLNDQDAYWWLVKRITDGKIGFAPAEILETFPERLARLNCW

Bzz1-1, P38822 = biological target: T6, Bzz1-1, P38822; settings: median of control spots 4446
T6 sequence (P38822 478-572, looked up): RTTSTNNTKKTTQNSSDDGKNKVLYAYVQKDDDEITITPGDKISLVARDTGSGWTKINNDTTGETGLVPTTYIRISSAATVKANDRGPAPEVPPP

Bzz1-2, P38822 = biological target: T7, Bzz1-2, P38822; settings: median of control spots 4538
T7 sequence (P38822 568-633, looked up): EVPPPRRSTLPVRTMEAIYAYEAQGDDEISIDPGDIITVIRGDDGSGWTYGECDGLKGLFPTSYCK

Cdc25, P04821 = biological target: T8, Cdc25, P04821; settings: median of control spots 969
T8 sequence (P04821 50-136, looked up): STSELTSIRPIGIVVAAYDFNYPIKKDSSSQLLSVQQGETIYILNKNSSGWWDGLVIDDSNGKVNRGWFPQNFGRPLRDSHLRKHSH

Cyk3, Q07533 = biological target: T9, Cyk3, Q07533; settings: median of control spots 1451
T9 sequence (Q07533 1-83, looked up): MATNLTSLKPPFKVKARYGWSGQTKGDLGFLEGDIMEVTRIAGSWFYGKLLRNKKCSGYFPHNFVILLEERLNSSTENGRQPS

Fus1, P11710 = biological target: T10, Fus1, P11710; settings: median of control spots 1200
T10 sequence (P11710 432-512, looked up): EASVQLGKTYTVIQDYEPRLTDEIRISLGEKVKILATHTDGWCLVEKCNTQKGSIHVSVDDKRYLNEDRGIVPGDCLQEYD

GST = settings: median of control spots 978
Hof1, Q05080 = biological target: T11, Hof1, Q05080; settings: median of control spots 4086
T11 sequence (Q05080 590-669, looked up): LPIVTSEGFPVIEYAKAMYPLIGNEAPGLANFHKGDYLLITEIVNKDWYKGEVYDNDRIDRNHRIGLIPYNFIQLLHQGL

Hse1, P38753 = biological target: T12, Hse1, P38753; settings: median of control spots 1727
T12 sequence (P38753 208-285, looked up): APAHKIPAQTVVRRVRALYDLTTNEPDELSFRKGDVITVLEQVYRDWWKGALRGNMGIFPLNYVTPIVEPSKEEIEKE

Lsb1, P53281 = biological target: T13, Lsb1, P53281; settings: median of control spots 388
T13 sequence (P53281 45-122, looked up): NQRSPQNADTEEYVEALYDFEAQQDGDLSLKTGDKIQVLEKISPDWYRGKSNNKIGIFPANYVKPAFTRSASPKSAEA

Lsb3, P43603 = biological target: T14, Lsb3, P43603; settings: median of control spots 406
T14 sequence (P43603 385-451, looked up): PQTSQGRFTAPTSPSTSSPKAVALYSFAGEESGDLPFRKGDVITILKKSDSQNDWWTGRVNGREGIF

Lsb4, P32793 = biological target: T15, Lsb4, P32793; settings: median of control spots 397
T15 sequence (P32793 402-468, looked up): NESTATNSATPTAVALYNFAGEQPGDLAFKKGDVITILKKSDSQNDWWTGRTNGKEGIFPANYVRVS

Myo3, P36006 = settings: median of control spots 468
Myo5, Q04439 = biological target: T16, Myo5, Q04439; settings: median of control spots 471
T16 sequence (Q04439 1072-1160, looked up): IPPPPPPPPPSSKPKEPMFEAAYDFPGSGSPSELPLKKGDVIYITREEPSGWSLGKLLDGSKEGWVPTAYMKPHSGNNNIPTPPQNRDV

Nbp2, Q12163 = biological target: T17, Nbp2, Q12163; settings: median of control spots 357
T17 sequence (Q12163 103-180, looked up): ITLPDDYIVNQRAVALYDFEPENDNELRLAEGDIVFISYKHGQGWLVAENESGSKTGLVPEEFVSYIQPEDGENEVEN

Pex13, P80667 = biological target: T18, Pex13, P80667; settings: median of control spots 1341
T18 sequence (P80667 295-386, looked up): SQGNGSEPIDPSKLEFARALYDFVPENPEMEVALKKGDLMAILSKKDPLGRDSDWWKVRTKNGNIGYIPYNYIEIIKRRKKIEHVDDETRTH

Pin3, Q06449 = biological target: T19, Pin3, Q06449; settings: median of control spots 2171
T19 sequence (Q06449 53-122, looked up): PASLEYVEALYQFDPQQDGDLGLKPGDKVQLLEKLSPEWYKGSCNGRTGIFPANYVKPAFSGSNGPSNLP

Rvs167, P39743 = settings: median of control spots 2707
Sho1, P40073 = settings: median of control spots 1148
Sla1-2, P32790 = biological target: T20, Sla1-2, P32790; settings: median of control spots 712
T20 sequence (P32790 60-140, looked up): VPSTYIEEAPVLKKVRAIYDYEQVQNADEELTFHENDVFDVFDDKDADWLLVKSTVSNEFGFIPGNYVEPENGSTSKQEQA

Sla1-3, P32790 = biological target: T21, Sla1-3, P32790; settings: median of control spots 5475
T21 sequence (P32790 344-424, looked up): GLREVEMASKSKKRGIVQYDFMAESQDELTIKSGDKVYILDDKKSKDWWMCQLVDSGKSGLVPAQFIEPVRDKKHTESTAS

Chain of Sho1, P40073 (P40073 287-367): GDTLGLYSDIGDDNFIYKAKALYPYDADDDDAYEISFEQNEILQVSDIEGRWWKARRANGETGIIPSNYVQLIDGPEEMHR
Chain of Bem1-1, P29366 (P29366 55-141): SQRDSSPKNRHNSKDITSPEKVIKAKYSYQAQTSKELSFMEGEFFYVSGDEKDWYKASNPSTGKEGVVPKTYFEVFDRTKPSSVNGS
Chain of Bem1-2, P29366 (P29366 139-227): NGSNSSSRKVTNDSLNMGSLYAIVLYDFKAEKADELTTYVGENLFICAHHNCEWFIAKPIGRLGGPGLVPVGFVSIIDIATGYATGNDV
Chain of Rvs167, P39743 (P39743 419-482): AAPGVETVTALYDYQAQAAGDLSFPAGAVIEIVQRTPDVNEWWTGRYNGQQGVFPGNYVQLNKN

Row | Binder | SPOT intensity (Abp1, P15891) | SPOT intensity (Bbc1, P47068) | SPOT intensity (Bem1-1, P29366) | SPOT intensity (Bem1-2, P29366) | SPOT intensity (Boi1, P38041) | SPOT intensity (Boi2, P39969) | SPOT intensity (Bud14, P27637) | SPOT intensity (Bzz1-1, P38822) | SPOT intensity (Bzz1-2, P38822) | SPOT intensity (Cdc25, P04821) | SPOT intensity (Cyk3, Q07533) | SPOT intensity (Fus1, P11710) | SPOT intensity (GST) | SPOT intensity (Hof1, Q05080) | SPOT intensity (Hse1, P38753) | SPOT intensity (Lsb1, P53281) | SPOT intensity (Lsb3, P43603) | SPOT intensity (Lsb4, P32793) | SPOT intensity (Myo3, P36006) | SPOT intensity (Myo5, Q04439) | further results
1 | ALFRLSFFFPLDPAY | 142 | 218 | 0 | 27 | 192 | 17 | 12 | 0 | 31 | 359 | 13 | 628 | 1 | 33 | 116 | 49 | 16 | 21 | 44 | 17 | SPOT intensity (Nbp2, Q12163): 283; SPOT intensity (Pex13, P80667): 93; SPOT intensity (Pin3, Q06449): 39; SPOT intensity (Rvs167, P39743): 8; SPOT intensity (Sho1, P40073): 168; SPOT intensity (Sla1-2, P32790): 4; SPOT intensity (Sla1-3, P32790): 54
2 | NPNRRAPRRPLSTQH | 151 | 294 | 3 | 476 | 28 | 0 | 17 | 0 | 56 | 221 | 3 | 59 | 0 | 70 | 113 | 52 | 2 | 18 | 46 | 0 | SPOT intensity (Nbp2, Q12163): 626; SPOT intensity (Pex13, P80667): 27; SPOT intensity (Pin3, Q06449): 4; SPOT intensity (Rvs167, P39743): 0; SPOT intensity (Sho1, P40073): 267; SPOT intensity (Sla1-2, P32790): 4; SPOT intensity (Sla1-3, P32790): 607
3 | NHSRSLFSLPGNQQS | 53 | 35 | 3 | 353 | 7 | 2 | 7 | 2 | 19 | 333 | 0 | 653 | 2 | 364 | 114 | 46 | 0 | 0 | 13 | 1 | SPOT intensity (Nbp2, Q12163): 77; SPOT intensity (Pex13, P80667): 36; SPOT intensity (Pin3, Q06449): 16; SPOT intensity (Rvs167, P39743): 0; SPOT intensity (Sho1, P40073): 141; SPOT intensity (Sla1-2, P32790): 1; SPOT intensity (Sla1-3, P32790): 124
4 | NFLRLLIGLPSQNEL | 55 | 156 | 1 | 0 | 122 | 6 | 22 | 2 | 0 | 354 | 9 | 243 | 0 | 3 | 10 | 2 | 0 | 0 | 10 | 0 | SPOT intensity (Nbp2, Q12163): 84; SPOT intensity (Pex13, P80667): 47; SPOT intensity (Pin3, Q06449): 15; SPOT intensity (Rvs167, P39743): 0; SPOT intensity (Sho1, P40073): 93; SPOT intensity (Sla1-2, P32790): 0; SPOT intensity (Sla1-3, P32790): 0

From paper PMC2756588
